In PMC7789814, “The influence of various regions of the FOXP2 sequence on its structure and DNA-binding function” one finds percent of the species in the larger oligomer, stoichiometry N and Kd data, which are given here for four molecules.

In data set [1] the target is FOXP2 LZ-END. Kind of data set: SEC; 20 µM protein incubated at 20°C for at least 30 min; Superdex 200 10/300 GL; running buffer 500 mM NaCl, 10 mM HEPES pH 7.5, 2 mM DTT; calibrated with 12-200 kDa markers; oligomer size predicted from the monomeric size.
Data set [2] has as its target FOXP1 LZ-END. The description is as above.
Data set [3] addresses FOXP2 FHD-END. Kind of data set: SEC; 20 µM protein incubated at 20°C for at least 30 min; HiLoad 16/60 Superdex 75 prep grade; running buffer 500 mM NaCl, 10 mM HEPES pH 7.5, 2 mM DTT; calibrated with 12-200 kDa markers; oligomer size predicted from the monomeric size.
The target of the next data set is T1, FOXP2 LZ-FHD (UniProt O15409 372-594).
T1 sequence: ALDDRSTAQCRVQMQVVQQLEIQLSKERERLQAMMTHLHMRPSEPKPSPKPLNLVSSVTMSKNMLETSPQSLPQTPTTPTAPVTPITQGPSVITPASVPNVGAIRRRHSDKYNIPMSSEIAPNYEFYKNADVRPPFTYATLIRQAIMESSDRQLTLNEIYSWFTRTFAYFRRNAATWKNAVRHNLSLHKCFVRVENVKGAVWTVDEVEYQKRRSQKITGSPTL
Kind of data set: fluorescence anisotropy; FA: 10 mM HEPES pH 7.5, 100 mM NaCl, 0.02% NaN3, 500 nM DNA, temperature not stated; EMSA: 10 mM HEPES pH 7.5, 1 mM MgCl2, 100 mM KCl, 10% glycerol, 0.1 mg/ml BSA, 500 nM DNA, on ice, gel at 4 C. The following applies: protein: recombinant; (purified by nickel IMAC); chain copies: 2; blunt. For orientation: In fluorescence polarisation assays a small probe gives low polarisation when free and higher when bound to something large.

In a further data set the target is T2, FOXP2 FHD (UniProt O15409 504-594).
T2 sequence: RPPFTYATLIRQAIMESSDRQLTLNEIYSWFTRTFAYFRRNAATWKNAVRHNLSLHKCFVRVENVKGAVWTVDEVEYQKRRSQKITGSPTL
Described as above. Conditions: protein: recombinant; (purified by nickel IMAC); blunt.

Data set [4] has as its target T3, FOXP1 LZ-END (UniProt Q9H334 332-677).
T3 sequence: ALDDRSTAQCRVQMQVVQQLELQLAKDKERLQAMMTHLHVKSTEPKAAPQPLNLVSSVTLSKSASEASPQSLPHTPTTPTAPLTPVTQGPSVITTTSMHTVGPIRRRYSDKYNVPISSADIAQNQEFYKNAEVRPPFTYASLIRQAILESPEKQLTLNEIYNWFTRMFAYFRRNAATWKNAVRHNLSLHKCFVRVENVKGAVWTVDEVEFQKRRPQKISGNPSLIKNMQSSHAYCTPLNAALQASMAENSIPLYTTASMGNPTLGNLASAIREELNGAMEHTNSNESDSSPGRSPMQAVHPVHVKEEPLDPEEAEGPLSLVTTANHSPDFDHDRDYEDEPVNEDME
Described as above. Conditions: protein: recombinant; (purified by nickel IMAC); chain copies: 4; blunt.

The target of another data set is T4, FOXP1 LZ-FHD (UniProt Q9H334 332-555).
T4 sequence: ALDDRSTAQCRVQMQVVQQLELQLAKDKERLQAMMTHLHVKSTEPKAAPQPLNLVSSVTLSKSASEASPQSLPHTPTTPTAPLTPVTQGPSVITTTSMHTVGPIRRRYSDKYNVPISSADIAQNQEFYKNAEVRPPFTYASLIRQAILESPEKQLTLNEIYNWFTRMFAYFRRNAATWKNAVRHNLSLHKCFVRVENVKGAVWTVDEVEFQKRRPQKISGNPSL
The description is as above. The following applies: protein: recombinant; chain copies: 2; blunt.

Data set [5] deals with T5, FOXP2 FHD-END (UniProt O15409 504-715).
T5 sequence: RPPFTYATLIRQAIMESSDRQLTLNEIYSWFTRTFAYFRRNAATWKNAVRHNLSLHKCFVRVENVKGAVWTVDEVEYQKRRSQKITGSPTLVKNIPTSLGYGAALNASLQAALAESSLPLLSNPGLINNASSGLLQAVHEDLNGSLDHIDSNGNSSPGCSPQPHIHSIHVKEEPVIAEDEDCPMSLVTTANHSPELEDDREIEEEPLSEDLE
The description is as above. The following applies: protein: recombinant; (purified by nickel IMAC); chain copies: 2; blunt.

The target of data set [6] is T6, FOXP2 LZ-END (UniProt O15409 372-715).
T6 sequence: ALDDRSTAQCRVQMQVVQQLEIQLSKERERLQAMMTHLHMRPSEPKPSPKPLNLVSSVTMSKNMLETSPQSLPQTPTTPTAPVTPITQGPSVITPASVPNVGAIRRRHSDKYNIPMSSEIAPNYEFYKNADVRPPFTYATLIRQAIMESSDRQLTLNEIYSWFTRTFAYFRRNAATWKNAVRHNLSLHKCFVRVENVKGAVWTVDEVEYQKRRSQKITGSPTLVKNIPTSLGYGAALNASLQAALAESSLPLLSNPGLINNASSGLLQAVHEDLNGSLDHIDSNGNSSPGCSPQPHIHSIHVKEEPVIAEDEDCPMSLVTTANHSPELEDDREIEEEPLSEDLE
The description is as above. The following applies: protein: recombinant; (purified by nickel IMAC); chain copies: 8; blunt.

FOXP2 LZ-END (domain or fragment): in the data set with FOXP2 LZ-END [1], the percent of the species in the larger oligomer is 70% and the stoichiometry N is under 8.

As to FOXP1 LZ-END (domain or fragment), in the data set with FOXP1 LZ-END [2], the percent of the species in the larger oligomer is 60% and the stoichiometry N was 4.

As to FOXP2 FHD-END (domain or fragment), the stoichiometry N with FOXP2 FHD-END [3] was 2.

B1: FOXP2 cognate DNA, ROX-labelled (dsDNA)
DNA 1: TTAGGTGTTTACTTTCATAG
DNA 2: CTATGAAAGTAAACACCTAA
In the case of B1, the Kd with FOXP2 LZ-FHD stood at 347 ± 55.4 nM; with FOXP2 FHD, 1746 ± 15.9 nM; with FOXP1 LZ-END [4], 1280 ± 70.4 nM; in the data set with FOXP1 LZ-FHD it was 766 ± 12.1 nM; with FOXP2 FHD-END [5], 1900 ± 25.1 nM; with FOXP2 LZ-END [6], 326 ± 73.2 nM.

One may read the stoichiometry N as a count of units in the complex or per binding partner. The Kd is the free concentration of one partner at which half of the binding sites on the other are occupied at equilibrium, for simple one-to-one binding.
